± gives the uncertainty stated by the source.
Assay: self-splicing fitness, log relative to wild type (ln ratio); higher = more splicing; Tetrahymena group I intron in knt gene, E. coli kanamycin selection, DiMSum; sequences stand for … in CUCUCU…GGAGGGAAAAGUUAUCAGGCAUGCACCUGGUAGCUAGUCUUUAAACCAAUAGAUUGCAUCGGUUUAAAAGGCAAGACCGUCAAAUUGCGGGAAAGGGGUCAACAGCCGUUCAGUACCAAGUCUCAGGGGAAACUUUGAGAUGGCCUUGCAAAGGGUAUGGUAAUAAGCUGACGGACAUGGUCCUAACCACGCAGCCAAGUCCUAAGUCAACAGAUCUUCUGUUGAUAUGGAUGCAGUUCACAGACUAAAUGUCGGUCGGGGAAGAUGUAUUCUUCUCAUAAGAUAUAGUCGGACCUCUCCUUAAUGGGAGCUAGCGGAUGAAGUGAUGCAACACUGGAGCCGCUGGGAACUAAUUUGUAUGCGAAAGUAUAUUGAUUAGUUUUGGAGUACUCGUGGUCG
Outline: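 Fitness was computed with DiMSum as the error-weighted combination of replicate fold changes, kanamycin versus none, each normalised to wild type. The library randomised all eight intron nucleotides of the P1ex region, with the intron placed in the knt kanamycin-resistance gene on pET-22b(+) in E. coli BL21(DE3). Six replicate transformations were grown overnight at 37°C or 30°C on LB agar with or without 25 μg/mL kanamycin, plus 100 μg/mL carbenicillin, 50 μM IPTG and 0.2% rhamnose. Pooled colonies were amplicon-sequenced on an Illumina HiSeq 2500.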

| Sequence | self-splicing fitness (ln) (30 °C) | self-splicing fitness (ln) (37 °C) |
| --- | --- | --- |
| ACCUAGCAAUAUUACGUCGG | -1.07 ± 0.078 | -1.11 ± 0.11 |
| ACCUAGCAAUAUUACGUGCC | -1.63 ± 0.12 | -0.237 ± 0.14 |
| ACCUAGCAAUAUUACGUUUA | -3.18 ± 0.17 | -2.68 ± 0.17 |
| ACCUAGCAAUAUUACGUUUU | -2.61 ± 0.091 | -1.44 ± 0.1 |
| ACGAAGCAAUAUUACGAAAC | -2.87 ± 0.23 | – |
| ACGAAGCAAUAUUACGAAGG | -2.21 ± 0.17 | -1.4 ± 0.15 |
| ACGAAGCAAUAUUACGACGU | -2.78 ± 0.17 | -1.88 ± 0.19 |
| ACGAAGCAAUAUUACGCAAA | -2.64 ± 0.15 | -0.916 ± 0.13 |
| ACGAAGCAAUAUUACGCGCU | -1.01 ± 0.09 | 0.163 ± 0.12 |
| ACGAAGCAAUAUUACGCUAC | -2.09 ± 0.14 | -2.81 ± 0.15 |
| ACGAAGCAAUAUUACGCUAU | -0.928 ± 0.06 | -1.48 ± 0.078 |
| ACGAAGCAAUAUUACGGACG | -1.55 ± 0.13 | -0.00573 ± 0.18 |
| ACGAAGCAAUAUUACGGAGU | -3.82 ± 0.24 | -3.07 ± 0.29 |
| ACGAAGCAAUAUUACGGCCU | 0.00118 ± 0.097 | 0.0498 ± 0.13 |
| ACGAAGCAAUAUUACGGGCU | -0.943 ± 0.1 | -1.67 ± 0.16 |
| ACGAAGCAAUAUUACGGGUU | -3.63 ± 0.15 | -2.58 ± 0.14 |
| ACGAAGCAAUAUUACGGUCU | -0.57 ± 0.073 | -0.225 ± 0.097 |
| ACGAAGCAAUAUUACGGUGU | -2.71 ± 0.11 | -1.59 ± 0.095 |
| ACGAAGCAAUAUUACGGUUA | -1.58 ± 0.095 | -0.445 ± 0.079 |
| ACGAAGCAAUAUUACGGUUC | -4.09 ± 0.23 | -0.86 ± 0.15 |
| ACGAAGCAAUAUUACGUAGC | -3.19 ± 0.17 | -1.16 ± 0.14 |

| Sequence | self-splicing fitness (ln) (30 °C) | self-splicing fitness (ln) (37 °C) |
| --- | --- | --- |
| ACGAAGCAAUAUUACGUAGG | -2.12 ± 0.099 | -1.43 ± 0.15 |
| ACGAAGCAAUAUUACGUAUG | -1.94 ± 0.14 | -2.7 ± 0.23 |
| ACGAAGCAAUAUUACGUCCC | -1.28 ± 0.13 | -1.07 ± 0.16 |
| ACGAAGCAAUAUUACGUCUA | -1.66 ± 0.071 | -1.03 ± 0.061 |
| ACGAAGCAAUAUUACGUGCA | -0.772 ± 0.066 | 0.325 ± 0.084 |
| ACGAAGCAAUAUUACGUGGG | -2.76 ± 0.16 | -2.84 ± 0.17 |
| ACGAAGCAAUAUUACGUUAG | -3.22 ± 0.12 | -2.44 ± 0.16 |
| ACGAAGCAAUAUUACGUUUC | -2.31 ± 0.11 | -2.18 ± 0.17 |
| ACGCAGCAAUAUUACGAAAC | -3.07 ± 0.4 | -1.58 ± 0.21 |
| ACGCAGCAAUAUUACGAAAG | -3.33 ± 0.21 | -2 ± 0.19 |
| ACGCAGCAAUAUUACGAACA | -1.75 ± 0.081 | -1.36 ± 0.086 |
| ACGCAGCAAUAUUACGACCA | -1.49 ± 0.12 | -0.691 ± 0.15 |
| ACGCAGCAAUAUUACGAGAA | -1.64 ± 0.26 | -2.83 ± 0.25 |
| ACGCAGCAAUAUUACGAGCC | -2.97 ± 0.2 | -1.84 ± 0.17 |
| ACGCAGCAAUAUUACGAGGG | -3.71 ± 0.18 | -2.77 ± 0.21 |
| ACGCAGCAAUAUUACGAUUG | -2.96 ± 0.18 | -1.82 ± 0.17 |
| ACGCAGCAAUAUUACGCCCG | -0.491 ± 0.13 | -0.64 ± 0.19 |
| ACGCAGCAAUAUUACGCCUC | -2.83 ± 0.17 | -1.22 ± 0.19 |
| ACGCAGCAAUAUUACGCGAA | -2.4 ± 0.15 | -1.2 ± 0.13 |
| ACGCAGCAAUAUUACGCUAC | -1.93 ± 0.25 | -2.59 ± 0.45 |
| ACGCAGCAAUAUUACGGGCU | -2.46 ± 0.11 | -1.36 ± 0.12 |

From the supplement of paper PMC7877785
